# Source: the RNAGym collection of RNA variant scans (doi:10.1073/pnas.2313332121)
# This sample holds only a part of the variants without activity.
# B1: TPR 5TU (parent)
# chain: GGAUCUUCUCGAUCUAACAAAAAAGACAAAUCUGCCACAAAGCUUGAGAGCAUCUUCGGAUGCAGAGGCGGCAGCCUUCGGUGGCGCGAUAGCGCCAACGUUCUCAACUAUGACACGCAAAACGCGUGCUCCGUUGAAUGGAGUUUAUCAUG
# Variants of: B1
# Assay: polymerase ribozyme fitness, log enrichment relative to wild type (log ratio); higher = more active; in vitro selection for triplet polymerase activity
# How it was run: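 After PCR construction and transcription, each subunit's mutant library from a heterodimeric triplet polymerase ribozyme was annealed with a biotinylated primer, the partner subunit and triplets. Incubation was frozen, at −7 °C, and extended constructs were gel-excised, bound to streptavidin beads and amplified by RT-PCR, in one selection round done in triplicate. Fitness is the logarithm of a genotype's enrichment divided by that of the wild type, from inverse-variance-weighted replicate averages of Illumina-sequenced inputs and outputs. The base of the logarithm is 2, and genotypes needed ≥10 input reads and ≥1 read per output.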
row,Variant,polymerase ribozyme fitness (log ratio)
1,A30G A150U,-2.97
2,G11U C32U G84A C85A C105U C132U U139G U151G,-4.14
3,A29U G65A C87A A91C U109G,≤ -4.2
4,A26G U145A,-3.59
5,A16U C51A A73G C85U A122C,≤ -4.2
6,U33G G42C G88U G124U C125G,-3.86
7,A12U A49C U53A C85U C118G U151G,≤ -4.2
8,G11C A23G A91G C95U A121G,-3.82
9,U31C C85U,0.604
10,U104G A119C C123U,0.501
11,A49C G71C U101G A137U A150U,≤ -4.2
12,C54G U82G,-0.687
13,A30U A52G G58A G70U C79U G83A C93U,≤ -4.2
14,C32U U144A,-2.41
15,C27U C57A,-0.747
16,A19C U45A G59U U148A C149G,≤ -4.2
17,A52G C96U A122U,-0.85
18,A28U G48U,≤ -4.2
19,A21U U135A,-1.24
20,G84A A115C,-0.594
21,C69U,-1.03

row,Variant,polymerase ribozyme fitness (log ratio)
1,A19G U55A,-0.576
2,A30G U45A U78C G80C A89C G94U,≤ -4.2
3,A29G A52C C85A U90C C95G A97G C118A A138C G143U,≤ -4.2
4,U13A A19U A37C U45A A49C C51U C76U G94A G133U U134A G140U U148A,≤ -4.2
5,C35A U101C,-3.87
6,A29U G68A G83A C103G,≤ -4.2
7,A40G C85U,-2.16
8,C35G A115G,-3.92
9,A22G G83A C105A,-3.83
10,G25C C87A G100U,≤ -4.2
11,U4G C10A C35U G83U G88C A120C G143A,-4.17
12,A12U C85U A97G C116U,-1.53
13,A41U G50A,-2.68
14,C38A A47C C96A,-1.63
15,C8G C57U G59A C69G G88U C96G A120U,≤ -4.2
16,C14G C36U G92C,≤ -4.2
17,U53G C96U C114U A120C A147U,-3.11
18,U55A A60G C76G C87G C96U U139A G140C,≤ -4.2
19,C51A G74A C85A C114A,≤ -4.2
20,A121C G128C,-2.44
21,A26C C76U G81U G86A U144C,-3.81

row,Variant,polymerase ribozyme fitness (log ratio)
1,C85A C96U G128A,-4.19
2,C14A G80A C85U C103G G117U G124U A142G,≤ -4.2
3,U33G U56C G81C C95U,-3.74
4,A91G,-2.77
5,C8U A47G,-3.73
6,U13A C18U U55A A119G,-1.83
7,U55G C63U G81U C87G U102G C116G A150C,≤ -4.2
8,C54U G65U A73U A91U C108G,≤ -4.2
9,G65A G67C G92A,≤ -4.2
10,C76A U145C,-0.484
11,G83A A97U A98U A138U,-4.07
12,U56A U82C C93U,-1.41
13,U4G G74A G84U U109A,≤ -4.2
14,G86U U104G C116A,-2.52
15,U44A C76A U82G G100A C103G A137G,≤ -4.2
16,U56A G58C C93U U127G U145A,-3.83
17,A60C G83U A121U,-2.35
18,G67C C76U C96U C149U,≤ -4.2
19,G59C A89U C96G A107G,≤ -4.2
20,C79A C96A,-4.03
21,G94C U134G U135C,≤ -4.2

row,Variant,polymerase ribozyme fitness (log ratio)
1,A47C A49C G65A G84A A113G G141A,≤ -4.2
2,G58C C87U,-1.59
3,A3U C8U C96U,-1.89
4,C36A C85U A89U C96G,≤ -4.2
5,A40C U135A,-0.385
6,G88C U101C A113C U139G,≤ -4.2
7,U145C U146G,0.121
8,C10A A19C A29U C36U C57U G58A A66C G67C U82G G84U U109A,≤ -4.2
9,U33C A39U G62A G86A A107U,≤ -4.2
10,A52G C54A,-0.998
11,A52G A66C C85A A110C,≤ -4.2
12,C18U C85G U145A,-1.19
13,A40U U53A,-0.83
14,A17C U82A C85A C93U,≤ -4.2
15,A52C G68A G94C C99U C108G A120C G143C,≤ -4.2
16,C14A U53A C96A A98C A120U G141A,-3.99
17,A17G U33G C79G G84A U134G,≤ -4.2
18,A52C G62C A120G G140U,-4.1
19,A3U G83C,-0.632
20,C27A C43A A52U U55A U56A G92U,≤ -4.2
